molecular target: dopamine D2 receptor labelled with mCherry (D2R-mCherry) (UniProt P14416)
Chain of UniProt P14416 (P14416 whole entry): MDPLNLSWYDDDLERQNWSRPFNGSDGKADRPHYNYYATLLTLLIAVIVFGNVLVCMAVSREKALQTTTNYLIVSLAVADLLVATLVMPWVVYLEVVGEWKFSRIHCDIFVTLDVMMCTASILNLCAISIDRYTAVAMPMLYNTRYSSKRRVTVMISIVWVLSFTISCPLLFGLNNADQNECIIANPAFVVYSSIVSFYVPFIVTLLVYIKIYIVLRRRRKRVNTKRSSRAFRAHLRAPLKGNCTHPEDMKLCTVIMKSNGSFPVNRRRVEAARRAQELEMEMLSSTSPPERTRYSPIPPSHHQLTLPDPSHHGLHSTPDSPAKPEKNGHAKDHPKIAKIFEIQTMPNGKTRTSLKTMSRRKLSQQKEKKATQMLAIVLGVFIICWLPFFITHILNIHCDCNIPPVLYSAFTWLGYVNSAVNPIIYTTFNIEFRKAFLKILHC

intracellular cAMP level in HEK293 cells after stimulation of D2R with 1 μM sumanirole, as percent of control (stimulated nontransfected cells) (% of the control)	Substance
70.4	Gαi3β1γ9 heterotrimer (Gαi3-Citrine with Gβ1 and Gγ9) (from UniProt P08754 1-354; P62873 1-340; O14610 1-69) (complex)
20	Gαi3β1γ2 heterotrimer (Gαi3-Citrine with Gβ1 and Gγ2) (from UniProt P08754 1-354; P62873 1-340; P59768 1-71) (complex)
14.4	Gαi3β1γ10 heterotrimer (Gαi3-Citrine with Gβ1 and Gγ10) (from UniProt P08754 1-354; P62873 1-340; P50151 1-68) (complex)

Reference: paper PMC10566112
